Source: patent US7638487B2, “Lactoferrin in the reduction of pain” (Agennix, Inc., priority 2002, dated 2009)

Legend:
[1] = system: radiant heat-induced tail-flick response in mice; experiment: Tail flick test, radiant heat-induced pain in mice; format: in vivo
Description: The tail flick test measures the time (max 15 s) required to elicit a radiant heat-induced tail-flick response in mice. Mice received 1000 mg/kg rhLF or placebo orally 60 minutes prior to test (N=5 per group).

[2] = system: phenylquinone-induced writhes in mice; experiment: Phenylquinone (PQ)-induced writhing test in mice; format: in vivo
Description: The PQ test measures the number of writhes seen during a 5-10 minute period following IP injection of phenylquinone in mice (2 mg/kg) (N=3). Mice received 1000 mg/kg rhLF or placebo orally 60 minutes prior to test (N=5 per group).

B1: recombinant human lactoferrin (protein, UniProt P02788 20-710, looked up)
Lactotransferrin: GRRRSVQWCAVSQPEATKCFQWQRNMRKVRGPPVSCIKRDSPIQCIQAIAENRADAVTLDGGFIYEAGLAPYKLRPVAAEVYGTERQPRTHYYAVAVVKKGGSFQLNELQGLKSCHTGLRRTAGWNVPIGTLRPFLNWTGPPEPIEAAVARFFSASCVPGADKGQFPNLCRLCAGTGENKCAFSSQEPYFSYSGAFKCLRDGAGDVAFIRESTVFEDLSDEAERDEYELLCPDNTRKPVDKFKDCHLARVPSHAVVARSVNGKEDAIWNLLRQAQEKFGKDKSPKFQLFGSPSGQKDLLFKDSAIGFSRVPPRIDSGLYLGSGYFTAIQNLRKSEEEVAARRARVVWCAVGEQELRKCNQWSGLSEGSVTCSSASTTEDCIALVLKGEADAMSLDGGYVYTAGKCGLVPVLAENYKSQQSSDPDPNCVDRPVEGYLAVAVVRRSDTSLTWNSVKGKKSCHTAVDRTAGWNIPMGLLFNQTGSCKFDEYFSQSCAPGSDPRSNLCALCIGDEQGENKCVPNSNERYYGYTGAFRCLAENAGDVAFVKDVTVLQNTDGNNNEAWAKDLKLADFALLCLDGKRKPVTEARSCHLAMAPNHAVVSRMDKVERLKQVLLHQQAKFGRNGSDCPDKFCLFQSETKNLLFNDNTECLARLHGKTTYEKYLGPQYVAGITNLKKCSTSPLLEACEFLRK
- reduction in pain as measured by number of tail flicks observed ([1]; 1000 mg/kg orally 60 minutes prior to test, vs placebo (FIG. 1)): statistically significant reduction in pain
- difference in tail flick response between placebo and treated groups at time zero ([1]; 1000 mg/kg orally, time zero (FIG. 1)): No difference in response
- reduction in pain as measured by number of writhes observed ([2]; 1000 mg/kg orally 60 minutes prior to test, IP phenylquinone 2 mg/kg, writhes during 5-10 minute period, vs placebo (FIG. 2)): reduction in pain
- difference in writhing response between placebo and treated groups at time zero ([2]; 1000 mg/kg orally, time zero (FIG. 2)): No difference in response
